Article doi:10.1101/2020.02.18.954511 (bioRxiv, 2020)
Read-outs that look alike come from different tables or passages of the source.

T1: diol dehydratase PduCDE (Salmonella enterica, UniProt P37450 1-554; O31041 1-224; O31042 1-173)
T1 sequence (looked up) 1: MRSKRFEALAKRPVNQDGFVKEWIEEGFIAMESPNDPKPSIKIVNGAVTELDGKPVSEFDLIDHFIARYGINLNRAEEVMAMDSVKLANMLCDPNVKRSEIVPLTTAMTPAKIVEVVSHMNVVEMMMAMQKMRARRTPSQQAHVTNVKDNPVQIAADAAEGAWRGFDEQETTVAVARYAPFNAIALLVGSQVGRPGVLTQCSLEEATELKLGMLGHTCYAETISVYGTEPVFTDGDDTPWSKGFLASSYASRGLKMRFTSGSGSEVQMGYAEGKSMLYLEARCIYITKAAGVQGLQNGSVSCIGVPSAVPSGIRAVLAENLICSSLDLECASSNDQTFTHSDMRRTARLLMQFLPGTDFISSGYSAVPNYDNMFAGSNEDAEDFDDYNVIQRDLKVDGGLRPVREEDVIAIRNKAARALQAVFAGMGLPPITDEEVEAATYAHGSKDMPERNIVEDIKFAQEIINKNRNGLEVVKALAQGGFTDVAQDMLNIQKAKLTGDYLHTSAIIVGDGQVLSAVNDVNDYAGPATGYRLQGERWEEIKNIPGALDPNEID
T1 sequence (looked up) 2: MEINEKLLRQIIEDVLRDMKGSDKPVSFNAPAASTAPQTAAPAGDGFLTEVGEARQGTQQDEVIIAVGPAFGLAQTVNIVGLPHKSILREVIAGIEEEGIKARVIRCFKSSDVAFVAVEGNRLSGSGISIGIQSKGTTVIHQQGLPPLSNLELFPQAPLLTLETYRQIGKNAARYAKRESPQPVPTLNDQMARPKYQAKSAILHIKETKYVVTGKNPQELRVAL
T1 sequence (looked up) 3: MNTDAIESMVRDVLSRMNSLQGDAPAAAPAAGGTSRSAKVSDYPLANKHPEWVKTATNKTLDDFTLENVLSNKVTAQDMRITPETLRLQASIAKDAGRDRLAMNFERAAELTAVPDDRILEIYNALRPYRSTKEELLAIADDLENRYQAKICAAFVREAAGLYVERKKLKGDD


Key:
[1] = biological target: T1, diol dehydratase PduCDE; test: time-resolved fluorescence anisotropy
[2] = biological target: T1, diol dehydratase PduCDE; test: time-resolved fluorescence anisotropy; remark: listed apart in the source
[3] = biological target: the molecule itself; test: dynamic light scattering

| Binder | binding result [1] | binding result [2] | binding result [3] |
| --- | --- | --- | --- |
| shell protein PduB’M38L (natural protein, Salmonella enterica, UniProt P37449 1-270, looked up) MSSNELVEQIMAQVIARVATPEQQAIPGQPQPIRETALAEKSCSLTEFVGTAIGDTLGLVIANVDTALLDAMKLEKRYRSIGILGARTGAGPHIMAADEAVKATNTEVVSIELPRDTKGGAGHGSLIILGGNDVSDVKRGIEVALKELDRTFGDVYGNEAGHIELQYTARASYALEKAFGAPIGRACGIIVGAPASVGVLMADTALKSANVEVVAYSSPAHGTSFSNEAILVISGDSGAVRQAVTSAREIGKTVLATLGSEPKNDRPSYI | binds | – | – |
| shell protein PduB (N-terminal truncated) (natural protein, Salmonella enterica, UniProt P37449 38-270, looked up) MAEKSCSLTEFVGTAIGDTLGLVIANVDTALLDAMKLEKRYRSIGILGARTGAGPHIMAADEAVKATNTEVVSIELPRDTKGGAGHGSLIILGGNDVSDVKRGIEVALKELDRTFGDVYGNEAGHIELQYTARASYALEKAFGAPIGRACGIIVGAPASVGVLMADTALKSANVEVVAYSSPAHGTSFSNEAILVISGDSGAVRQAVTSAREIGKTVLATLGSEPKNDRPSYI | – | binds | binds |
